Source: patent US20090311283A1
Like-named read-outs stand apart in the source and are kept apart here.

What was measured:
HLA-A*6802 (Human) [1] = details: remark: other sources report otherwise
[2] = biological target: T1, HLA-DR1 (DRB1*0101) (human); test: competition with 125I probe peptide for purified HLA-DR, gel filtration
T1 chain 1: not shown
T1 chain 2: not shown

[3] = biological target: T2, HLA-DR4w4 (DRB1*0401) (human); test: as above
T2 chain 1: not shown
T2 chain 2: not shown

[4] = biological target: T3, HLA-DR5w11 (DRB1*1101) (human); test: as above
T3 chain 1: not shown
T3 chain 2: not shown

[5] = biological target: HLA-DR5w12 (DRB1*1201) (human); test: as above
[6] = biological target: T4, HLA-DR6w19 (DRB1*1302) (human); test: as above
T4 chain 1: not shown
T4 chain 2: not shown

[7] = biological target: T5, HLA-DR7 (DRB1*0701) (human); test: as above
T5 chain 1: not shown
T5 chain 2: not shown

[8] = biological target: T6, HLA-DR8w2 (DRB1*0802) (human); test: as above
T6 chain 1: not shown
T6 chain 2: not shown

[9] = biological target: HLA-DR9 (DRB1*0901) (human); test: as above
[10] = biological target: T7, HLA-DRw53 (DRB4*0101) (human); test: as above
T7 chain 1: not shown
T7 chain 2: not shown

HLA-B*0702 (human) = test: competition vs 125I probe peptide, purified HLA, gel filtration; details: remark: other sources report otherwise
HLA-B*5401 (human) = test: as above; details: remark: other sources report otherwise
[11] = biological target: T1, HLA-DR1 (DRB1*0101) (human); test: inhibition of 125I probe peptide binding to purified HLA-DR, gel filtration; details: remark: other sources report otherwise
[12] = biological target: T3, HLA-DR5w11 (DRB1*1101) (human); test: as above; details: remark: other sources report otherwise
HLA-A*0201 (Human) = details: remark: other sources report otherwise
HLA-A*0203 (Human) = details: remark: other sources report otherwise
HLA-A*6802 (Human) [13] = details: remark: other sources report otherwise; remark: listed apart in the source
HLA-A*03 (human) = test: competitive inhibition of 125I-labelled probe peptide binding to purified HLA, gel filtration; details: remark: other sources report otherwise
HLA-DRB1*0101 (human) [14] = biological target: T8, HLA-DRB1*0101 (human)
T8 chain 1: not shown
T8 chain 2: not shown

HLA-DRB4*0101 (human) = biological target: T9, HLA-DRB4*0101 (human)
T9 chain 1: not shown
T9 chain 2: not shown

HLA-A*6801 (human) = test: inhibition of 125I-labelled probe peptide binding to purified HLA, gel filtration; details: remark: other sources report otherwise
HLA-DRB1*0101 (human) [15] = biological target: T8, HLA-DRB1*0101 (human); test: inhibition of 125I-labelled probe peptide binding to purified HLA-DR; gel filtration; details: remark: other sources report otherwise
HLA-DRB1*0401 (human) = biological target: T10, HLA-DRB1*0401 (human); test: as above; details: remark: other sources report otherwise
T10 chain 1: not shown
T10 chain 2: not shown

HLA-DRB1*0405 (human) = biological target: T11, HLA-DRB1*0405 (human); test: as above; details: remark: other sources report otherwise
T11 chain 1: not shown
T11 chain 2: not shown

HLA-DRB1*0802 (human) = biological target: T12, HLA-DRB1*0802 (human); test: as above; details: remark: other sources report otherwise
T12 chain 1: not shown
T12 chain 2: not shown

HLA-DRB1*0901 (human) = biological target: T13, HLA-DRB1*0901 (human); test: as above; details: remark: other sources report otherwise
T13 chain 1: not shown
T13 chain 2: not shown

HLA-DRB1*1101 (human) = biological target: T14, HLA-DRB1*1101 (human); test: as above; details: remark: other sources report otherwise
T14 chain 1: not shown
T14 chain 2: not shown

HLA-DRB1*1302 (human) = biological target: T15, HLA-DRB1*1302 (human); test: as above; details: remark: other sources report otherwise
T15 chain 1: not shown
T15 chain 2: not shown

HLA-DRB1*1501 (human) = biological target: T16, HLA-DRB1*1501 (human); test: as above; details: remark: other sources report otherwise
T16 chain 1: not shown
T16 chain 2: not shown

HLA-DRB5*0101 (human) = biological target: T17, HLA-DRB5*0101 (human); test: as above; details: remark: other sources report otherwise
T17 chain 1: not shown
T17 chain 2: not shown

HLA-B*3501 (human) = test: competition vs 125I probe peptide, purified HLA, gel filtration; details: remark: other sources report otherwise

B1: peptide 1069.14 (peptide)
peptide: ILSTLPETTV
modifications: not checked
- IC50 (HLA-A*6802 (Human) [1]): 5.97 µM

B2: HBV ENV 342 peptide … (peptide)
peptide: FVQWFVGLSPTVWLS
modifications: not checked
- relative binding (IC50 of standard peptide / IC50 of test peptide) [2]: 0.47
- relative binding (IC50 of standard peptide / IC50 of test peptide) [3]: 0.013
- relative binding (IC50 of standard peptide / IC50 of test peptide) [4]: 0.0072
- relative binding (IC50 of standard peptide / IC50 of test peptide) [5]: 0.0021
- relative binding (IC50 of standard peptide / IC50 of test peptide) [6]: 0.019
- relative binding (IC50 of standard peptide / IC50 of test peptide) [7]: 0.069
- relative binding (IC50 of standard peptide / IC50 of test peptide) [8]: 0.018
- relative binding (IC50 of standard peptide / IC50 of test peptide) [9]: 0.041
- relative binding (IC50 of standard peptide / IC50 of test peptide) [10]: 0.0044

B3: Peptide 19.0016 (HBV POL 769, VPSALNPA) (peptide)
peptide: VPSALNPA
modifications: not checked
- IC50 (HLA-B*0702 (human)): 3 µM
- IC50 (HLA-B*5401 (human)): 0.01 µM

B4: HBV POL peptide … (peptide)
peptide: CSVVRRAFPHCLAFS
modifications: not checked
- binding affinity ratio (relative to standard peptide) [11]: 0.1
- binding affinity ratio (relative to standard peptide) [12]: 0.0008

B5: HBV POL 656 … (peptide)
peptide: FTFSPTYKA
modifications: not checked
- binding affinity ratio (IC50 of standard peptide / IC50 of test peptide) (HLA-A*0201 (Human)): 0.0056
- binding affinity ratio (IC50 of standard peptide / IC50 of test peptide) (HLA-A*0203 (Human)): 0.0031
- binding affinity ratio (IC50 of standard peptide / IC50 of test peptide) (HLA-A*6802 (Human) [13]): 7.3

B6: HBV POL 771 peptide 1.0205 (…) (peptide)
peptide: ILRGTSFVY
modifications: not checked
- IC50 (HLA-A*03 (human)): 0.25 µM

B7: … (HBV POL 38, 15-mer) (peptide)
peptide: AEDLNLGNLNVSIPW
modifications: not checked
- binding affinity ratio (IC50 of standard peptide / IC50 of test peptide) (HLA-DRB1*0101 (human) [14]): 0.0001
- binding affinity ratio (IC50 of standard peptide / IC50 of test peptide) (HLA-DRB4*0101 (human)): 0.017

B8: HBV POL 50 peptide 26.0024 (VSIPWTHK) (peptide)
peptide: VSIPWTHK
modifications: not checked
- IC50 (HLA-A*6801 (human)): 20 µM

B9: … (HBV ENV 181, 15-mer) (peptide)
peptide: GFFLLTRILTIPQSL
modifications: not checked
- binding affinity ratio (IC50 of standard peptide / IC50 of test peptide) (HLA-DRB1*0101 (human) [15]): 0.43
- binding affinity ratio (IC50 of standard peptide / IC50 of test peptide) (HLA-DRB1*0401 (human)): 3.1
- binding affinity ratio (IC50 of standard peptide / IC50 of test peptide) (HLA-DRB1*0405 (human)): 0.45
- binding affinity ratio (IC50 of standard peptide / IC50 of test peptide) (HLA-DRB1*0802 (human)): 1.6
- binding affinity ratio (IC50 of standard peptide / IC50 of test peptide) (HLA-DRB1*0901 (human)): 0.55
- binding affinity ratio (IC50 of standard peptide / IC50 of test peptide) (HLA-DRB1*1101 (human)): 2.3
- binding affinity ratio (IC50 of standard peptide / IC50 of test peptide) (HLA-DRB1*1302 (human)): 0.078
- binding affinity ratio (IC50 of standard peptide / IC50 of test peptide) (HLA-DRB1*1501 (human)): 0.015
- binding affinity ratio (IC50 of standard peptide / IC50 of test peptide) (HLA-DRB5*0101 (human)): 0.011

B10: Peptide 16.0006 (HBV ENV 25, …) (peptide)
peptide: FPDHQLDPA
modifications: not checked
- IC50 (HLA-B*3501 (human)): 8 µM
- IC50 (HLA-B*5401 (human)): 0.012 µM
